Measured values as given in US20110118447A1.

Assays:
[1] = target: binding partner (antigen) of C5A (XPA23); assay: Biacore, K-off, fold vs original
[2] = target: binding partner of C5A (XPA23); assay: Biacore
[3] = target: binding partner of C5A (XPA23); assay: Biacore, mutant vs original C5A (XPA23)

fold difference in affinity in comparison to original [3] [fold] | Binder | other results
 | C5A (XPA23) VH Y107V (antibody, V domains shown) VH: EVQLLESGGGLVQPGGSLRLSCAASGFTFSKYFMFWVRQAPGKGLEWVSVISPSGGMTRYADSVKGRFTISRDNSKNTLYLQMNSLRAEDTAVYYCARVGYGGNSDVWGQGTLVTVSS VL: DIQMTQSPSSVSASVGDRLTIICRASQDINRWLAWYQQTPGNAPKLLIHSATSLQSGVPSRFSGSGSGTDFTLTINSLQPEDFATYYCQQADSFPLTFGGGTKVEIK | fold difference in affinity vs original [1]: 0.93 fold; fold difference in affinity vs original [2]: 0.93 fold
0.99 | C5A (XPA23) light chain variable region S53L (antibody, V domains shown) VH: EVQLLESGGGLVQPGGSLRLSCAASGFTFSKYFMFWVRQAPGKGLEWVSVISPSGGMTRYADSVKGRFTISRDNSKNTLYLQMNSLRAEDTAVYYCARVGYGGNSDYWGQGTLVTVSS VL: DIQMTQSPSSVSASVGDRLTIICRASQDINRWLAWYQQTPGNAPKLLIHSATLLQSGVPSRFSGSGSGTDFTLTINSLQPEDFATYYCQQADSFPLTFGGGTKVEIK | 
0.4 | C5A (XPA23) light chain variable region D92A (antibody, V domains shown) VH: EVQLLESGGGLVQPGGSLRLSCAASGFTFSKYFMFWVRQAPGKGLEWVSVISPSGGMTRYADSVKGRFTISRDNSKNTLYLQMNSLRAEDTAVYYCARVGYGGNSDYWGQGTLVTVSS VL: DIQMTQSPSSVSASVGDRLTIICRASQDINRWLAWYQQTPGNAPKLLIHSATSLQSGVPSRFSGSGSGTDFTLTINSLQPEDFATYYCQQAASFPLTFGGGTKVEIK | 
0.14 | C5A (XPA23) light chain variable region D92L (antibody, V domains shown) VH: EVQLLESGGGLVQPGGSLRLSCAASGFTFSKYFMFWVRQAPGKGLEWVSVISPSGGMTRYADSVKGRFTISRDNSKNTLYLQMNSLRAEDTAVYYCARVGYGGNSDYWGQGTLVTVSS VL: DIQMTQSPSSVSASVGDRLTIICRASQDINRWLAWYQQTPGNAPKLLIHSATSLQSGVPSRFSGSGSGTDFTLTINSLQPEDFATYYCQQALSFPLTFGGGTKVEIK | 
 | C5A (XPA23) VH Y107P (antibody, V domains shown) VH: EVQLLESGGGLVQPGGSLRLSCAASGFTFSKYFMFWVRQAPGKGLEWVSVISPSGGMTRYADSVKGRFTISRDNSKNTLYLQMNSLRAEDTAVYYCARVGYGGNSDPWGQGTLVTVSS VL: DIQMTQSPSSVSASVGDRLTIICRASQDINRWLAWYQQTPGNAPKLLIHSATSLQSGVPSRFSGSGSGTDFTLTINSLQPEDFATYYCQQADSFPLTFGGGTKVEIK | fold difference in affinity vs original [1]: 0.04 fold; fold difference in affinity vs original [2]: 0.04 fold
0.34 | C5A (XPA23) light chain variable region D92T (antibody, V domains shown) VH: EVQLLESGGGLVQPGGSLRLSCAASGFTFSKYFMFWVRQAPGKGLEWVSVISPSGGMTRYADSVKGRFTISRDNSKNTLYLQMNSLRAEDTAVYYCARVGYGGNSDYWGQGTLVTVSS VL: DIQMTQSPSSVSASVGDRLTIICRASQDINRWLAWYQQTPGNAPKLLIHSATSLQSGVPSRFSGSGSGTDFTLTINSLQPEDFATYYCQQATSFPLTFGGGTKVEIK | 
 | C5A (XPA23) VH Y107I (antibody, V domains shown) VH: EVQLLESGGGLVQPGGSLRLSCAASGFTFSKYFMFWVRQAPGKGLEWVSVISPSGGMTRYADSVKGRFTISRDNSKNTLYLQMNSLRAEDTAVYYCARVGYGGNSDIWGQGTLVTVSS VL: DIQMTQSPSSVSASVGDRLTIICRASQDINRWLAWYQQTPGNAPKLLIHSATSLQSGVPSRFSGSGSGTDFTLTINSLQPEDFATYYCQQADSFPLTFGGGTKVEIK | fold difference in affinity vs original [1]: 0.96 fold; fold difference in affinity vs original [2]: 0.96 fold
1.03 | C5A (XPA23) light chain variable region S53G (antibody, V domains shown) VH: EVQLLESGGGLVQPGGSLRLSCAASGFTFSKYFMFWVRQAPGKGLEWVSVISPSGGMTRYADSVKGRFTISRDNSKNTLYLQMNSLRAEDTAVYYCARVGYGGNSDYWGQGTLVTVSS VL: DIQMTQSPSSVSASVGDRLTIICRASQDINRWLAWYQQTPGNAPKLLIHSATGLQSGVPSRFSGSGSGTDFTLTINSLQPEDFATYYCQQADSFPLTFGGGTKVEIK | 
1.42 | C5A (XPA23) light chain variable region S53V (antibody, V domains shown) VH: EVQLLESGGGLVQPGGSLRLSCAASGFTFSKYFMFWVRQAPGKGLEWVSVISPSGGMTRYADSVKGRFTISRDNSKNTLYLQMNSLRAEDTAVYYCARVGYGGNSDYWGQGTLVTVSS VL: DIQMTQSPSSVSASVGDRLTIICRASQDINRWLAWYQQTPGNAPKLLIHSATVLQSGVPSRFSGSGSGTDFTLTINSLQPEDFATYYCQQADSFPLTFGGGTKVEIK | 
 | C5A (XPA23) VH Y107F (antibody, V domains shown) VH: EVQLLESGGGLVQPGGSLRLSCAASGFTFSKYFMFWVRQAPGKGLEWVSVISPSGGMTRYADSVKGRFTISRDNSKNTLYLQMNSLRAEDTAVYYCARVGYGGNSDFWGQGTLVTVSS VL: DIQMTQSPSSVSASVGDRLTIICRASQDINRWLAWYQQTPGNAPKLLIHSATSLQSGVPSRFSGSGSGTDFTLTINSLQPEDFATYYCQQADSFPLTFGGGTKVEIK | fold difference in affinity vs original [1]: 0.9 fold; fold affinity vs original [2]: 0.9 fold
0.51 | C5A (XPA23) light chain variable region A91V (antibody, V domains shown) VH: EVQLLESGGGLVQPGGSLRLSCAASGFTFSKYFMFWVRQAPGKGLEWVSVISPSGGMTRYADSVKGRFTISRDNSKNTLYLQMNSLRAEDTAVYYCARVGYGGNSDYWGQGTLVTVSS VL: DIQMTQSPSSVSASVGDRLTIICRASQDINRWLAWYQQTPGNAPKLLIHSATSLQSGVPSRFSGSGSGTDFTLTINSLQPEDFATYYCQQVDSFPLTFGGGTKVEIK | 
0.33 | C5A (XPA23) light chain variable region D92I (antibody, V domains shown) VH: EVQLLESGGGLVQPGGSLRLSCAASGFTFSKYFMFWVRQAPGKGLEWVSVISPSGGMTRYADSVKGRFTISRDNSKNTLYLQMNSLRAEDTAVYYCARVGYGGNSDYWGQGTLVTVSS VL: DIQMTQSPSSVSASVGDRLTIICRASQDINRWLAWYQQTPGNAPKLLIHSATSLQSGVPSRFSGSGSGTDFTLTINSLQPEDFATYYCQQAISFPLTFGGGTKVEIK | 
 | C5A (XPA23) VH Y107L (antibody, V domains shown) VH: EVQLLESGGGLVQPGGSLRLSCAASGFTFSKYFMFWVRQAPGKGLEWVSVISPSGGMTRYADSVKGRFTISRDNSKNTLYLQMNSLRAEDTAVYYCARVGYGGNSDLWGQGTLVTVSS VL: DIQMTQSPSSVSASVGDRLTIICRASQDINRWLAWYQQTPGNAPKLLIHSATSLQSGVPSRFSGSGSGTDFTLTINSLQPEDFATYYCQQADSFPLTFGGGTKVEIK | fold difference in affinity vs original [1]: 0.86 fold; fold difference in affinity vs original [2]: 0.86 fold
1.07 | C5A (XPA23) light chain variable region S53A (antibody, V domains shown) VH: EVQLLESGGGLVQPGGSLRLSCAASGFTFSKYFMFWVRQAPGKGLEWVSVISPSGGMTRYADSVKGRFTISRDNSKNTLYLQMNSLRAEDTAVYYCARVGYGGNSDYWGQGTLVTVSS VL: DIQMTQSPSSVSASVGDRLTIICRASQDINRWLAWYQQTPGNAPKLLIHSATALQSGVPSRFSGSGSGTDFTLTINSLQPEDFATYYCQQADSFPLTFGGGTKVEIK | 
0.67 | C5A (XPA23) light chain variable region A91T (antibody, V domains shown) VH: EVQLLESGGGLVQPGGSLRLSCAASGFTFSKYFMFWVRQAPGKGLEWVSVISPSGGMTRYADSVKGRFTISRDNSKNTLYLQMNSLRAEDTAVYYCARVGYGGNSDYWGQGTLVTVSS VL: DIQMTQSPSSVSASVGDRLTIICRASQDINRWLAWYQQTPGNAPKLLIHSATSLQSGVPSRFSGSGSGTDFTLTINSLQPEDFATYYCQQTDSFPLTFGGGTKVEIK | 
4.92 | C5A (XPA23) light chain variable region S53P (antibody, V domains shown) VH: EVQLLESGGGLVQPGGSLRLSCAASGFTFSKYFMFWVRQAPGKGLEWVSVISPSGGMTRYADSVKGRFTISRDNSKNTLYLQMNSLRAEDTAVYYCARVGYGGNSDYWGQGTLVTVSS VL: DIQMTQSPSSVSASVGDRLTIICRASQDINRWLAWYQQTPGNAPKLLIHSATPLQSGVPSRFSGSGSGTDFTLTINSLQPEDFATYYCQQADSFPLTFGGGTKVEIK | 
 | C5A (XPA23) VH Y107W (antibody, V domains shown) VH: EVQLLESGGGLVQPGGSLRLSCAASGFTFSKYFMFWVRQAPGKGLEWVSVISPSGGMTRYADSVKGRFTISRDNSKNTLYLQMNSLRAEDTAVYYCARVGYGGNSDWWGQGTLVTVSS VL: DIQMTQSPSSVSASVGDRLTIICRASQDINRWLAWYQQTPGNAPKLLIHSATSLQSGVPSRFSGSGSGTDFTLTINSLQPEDFATYYCQQADSFPLTFGGGTKVEIK | fold difference in affinity vs original [1]: 0.89 fold; fold affinity vs original [2]: 0.89 fold
0.95 | C5A (XPA23) light chain variable region S53T (antibody, V domains shown) VH: EVQLLESGGGLVQPGGSLRLSCAASGFTFSKYFMFWVRQAPGKGLEWVSVISPSGGMTRYADSVKGRFTISRDNSKNTLYLQMNSLRAEDTAVYYCARVGYGGNSDYWGQGTLVTVSS VL: DIQMTQSPSSVSASVGDRLTIICRASQDINRWLAWYQQTPGNAPKLLIHSATTLQSGVPSRFSGSGSGTDFTLTINSLQPEDFATYYCQQADSFPLTFGGGTKVEIK | 
0.39 | C5A (XPA23) light chain variable region A91L (antibody, V domains shown) VH: EVQLLESGGGLVQPGGSLRLSCAASGFTFSKYFMFWVRQAPGKGLEWVSVISPSGGMTRYADSVKGRFTISRDNSKNTLYLQMNSLRAEDTAVYYCARVGYGGNSDYWGQGTLVTVSS VL: DIQMTQSPSSVSASVGDRLTIICRASQDINRWLAWYQQTPGNAPKLLIHSATSLQSGVPSRFSGSGSGTDFTLTINSLQPEDFATYYCQQLDSFPLTFGGGTKVEIK | 
0.26 | C5A (XPA23) light chain variable region D92G (antibody, V domains shown) VH: EVQLLESGGGLVQPGGSLRLSCAASGFTFSKYFMFWVRQAPGKGLEWVSVISPSGGMTRYADSVKGRFTISRDNSKNTLYLQMNSLRAEDTAVYYCARVGYGGNSDYWGQGTLVTVSS VL: DIQMTQSPSSVSASVGDRLTIICRASQDINRWLAWYQQTPGNAPKLLIHSATSLQSGVPSRFSGSGSGTDFTLTINSLQPEDFATYYCQQAGSFPLTFGGGTKVEIK | 
1.42 | C5A (XPA23) light chain variable region S53I (antibody, V domains shown) VH: EVQLLESGGGLVQPGGSLRLSCAASGFTFSKYFMFWVRQAPGKGLEWVSVISPSGGMTRYADSVKGRFTISRDNSKNTLYLQMNSLRAEDTAVYYCARVGYGGNSDYWGQGTLVTVSS VL: DIQMTQSPSSVSASVGDRLTIICRASQDINRWLAWYQQTPGNAPKLLIHSATILQSGVPSRFSGSGSGTDFTLTINSLQPEDFATYYCQQADSFPLTFGGGTKVEIK | 
